The values below come from patent US20250352661A1 (MYTHIC THERAPEUTICS, published 2025).

Sequences and labels used below:
T1: Human LRRC15 Protein, His Tag (Acro Biosystems) (human, UniProt Q8TF66 22-538, limits assumed)
T1 construct: Bought protein with His tag
T1 sequence (looked up): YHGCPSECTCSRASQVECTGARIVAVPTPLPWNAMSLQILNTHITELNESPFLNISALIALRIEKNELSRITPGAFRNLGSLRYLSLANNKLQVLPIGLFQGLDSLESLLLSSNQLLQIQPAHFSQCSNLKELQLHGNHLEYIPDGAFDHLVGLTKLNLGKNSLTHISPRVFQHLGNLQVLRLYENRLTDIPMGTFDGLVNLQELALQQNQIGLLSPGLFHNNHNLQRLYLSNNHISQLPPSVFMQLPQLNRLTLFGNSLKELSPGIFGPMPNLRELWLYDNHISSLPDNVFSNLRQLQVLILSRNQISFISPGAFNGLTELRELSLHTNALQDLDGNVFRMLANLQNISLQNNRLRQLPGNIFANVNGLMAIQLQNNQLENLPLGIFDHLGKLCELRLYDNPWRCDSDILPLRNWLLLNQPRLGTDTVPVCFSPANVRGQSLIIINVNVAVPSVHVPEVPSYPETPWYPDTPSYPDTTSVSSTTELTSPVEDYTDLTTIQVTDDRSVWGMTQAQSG

B1: MYT5742 (antibody, V domains shown)
VH: QQQLVESGGGLVKPGASLTLTCKASGFSFSGSYWICWVRQAPGKGLEWIGCINGGSLDITYYASWAKGRFTISKASSTTVTLQKTSLTAADTATYFCASDTSYTAYGNFYFNLWGPGTLVTVSS
VL: AQVLTQTASPVSAAVGGTVTINCQSSQSVLNNNWLAWYQQKPGQPPKLLIYDASSLASGVPSRFKGSGSGTQFTLTISDLESDDAATYYCQGEFSCGSADCNAFGGGTEVVVKG
notes: Parent of the rabbit 24D9 scan; chimeric, rabbit variable domains with human constant regions; also called 24D9; chimeric 24D9 RabMAb
B2: MYT7891 (antibody, V domains shown)
VH: QQQLVESGGGLVKPGASLTLTCKASGFSFSGSYWIHWVRQAPGKGLEWIGSINGGSLDITYYASWAKGRFTISKASSTTVTLQKTSLTAADTATYFCASDTSYTAYGNFYFNLWGPGTLVTVSS
VL: AQVLTQTASPVSAAVGGTVTINCQSSQSVLNNNWLAWYQQKPGQPPKLLIYDASSLASGVPSRFKGSGSGTQFTLTISDLESDDAATYYCQGEFSCGSADCNAFGGGTEVVVKG
notes: rabbit 24D9 VH C36H; chimeric, human constant regions
B3: MYT7893 (antibody, V domains shown)
VH: QQQLVESGGGLVKPGASLTLTCKASGFSFSGSYWICWVRQAPGKGLEWIGCHNGGSLDITYYASWAKGRFTISKASSTTVTLQKTSLTAADTATYFCASDTSYTAYGNFYFNLWGPGTLVTVSS
VL: AQVLTQTASPVSAAVGGTVTINCQSSQSVLNNNWLAWYQQKPGQPPKLLIYDASSLASGVPSRFKGSGSGTQFTLTISDLESDDAATYYCQGEFSCGSADCNAFGGGTEVVVKG
notes: rabbit 24D9 VH I52H; chimeric, human constant regions
B4: MYT7881 (antibody, V domains shown)
VH: QQQLVESGGGLVKPGASLTLTCKASHFSFSGSYWICWVRQAPGKGLEWIGCINGGSLDITYYASWAKGRFTISKASSTTVTLQKTSLTAADTATYFCASDTSYTAYGNFYFNLWGPGTLVTVSS
VL: AQVLTQTASPVSAAVGGTVTINCQSSQSVLNNNWLAWYQQKPGQPPKLLIYDASSLASGVPSRFKGSGSGTQFTLTISDLESDDAATYYCQGEFSCGSADCNAFGGGTEVVVKG
notes: rabbit 24D9 VH G26H; chimeric, human constant regions
B5: MYT7894 (antibody, V domains shown)
VH: QQQLVESGGGLVKPGASLTLTCKASGFSFSGSYWICWVRQAPGKGLEWIGCIHGGSLDITYYASWAKGRFTISKASSTTVTLQKTSLTAADTATYFCASDTSYTAYGNFYFNLWGPGTLVTVSS
VL: AQVLTQTASPVSAAVGGTVTINCQSSQSVLNNNWLAWYQQKPGQPPKLLIYDASSLASGVPSRFKGSGSGTQFTLTISDLESDDAATYYCQGEFSCGSADCNAFGGGTEVVVKG
notes: rabbit 24D9 VH N53H; chimeric, human constant regions
B6: MYT7887 (antibody, V domains shown)
VH: QQQLVESGGGLVKPGASLTLTCKASGFSFSGHYWICWVRQAPGKGLEWIGCINGGSLDITYYASWAKGRFTISKASSTTVTLQKTSLTAADTATYFCASDTSYTAYGNFYFNLWGPGTLVTVSS
VL: AQVLTQTASPVSAAVGGTVTINCQSSQSVLNNNWLAWYQQKPGQPPKLLIYDASSLASGVPSRFKGSGSGTQFTLTISDLESDDAATYYCQGEFSCGSADCNAFGGGTEVVVKG
notes: rabbit 24D9 VH S32H; chimeric, human constant regions
B7: MYT7896 (antibody, V domains shown)
VH: QQQLVESGGGLVKPGASLTLTCKASGFSFSGSYWICWVRQAPGKGLEWIGCINGHSLDITYYASWAKGRFTISKASSTTVTLQKTSLTAADTATYFCASDTSYTAYGNFYFNLWGPGTLVTVSS
VL: AQVLTQTASPVSAAVGGTVTINCQSSQSVLNNNWLAWYQQKPGQPPKLLIYDASSLASGVPSRFKGSGSGTQFTLTISDLESDDAATYYCQGEFSCGSADCNAFGGGTEVVVKG
notes: rabbit 24D9 VH G55H; chimeric, human constant regions
B8: MYT7889 (antibody, V domains shown)
VH: QQQLVESGGGLVKPGASLTLTCKASGFSFSGSYHICWVRQAPGKGLEWIGCINGGSLDITYYASWAKGRFTISKASSTTVTLQKTSLTAADTATYFCASDTSYTAYGNFYFNLWGPGTLVTVSS
VL: AQVLTQTASPVSAAVGGTVTINCQSSQSVLNNNWLAWYQQKPGQPPKLLIYDASSLASGVPSRFKGSGSGTQFTLTISDLESDDAATYYCQGEFSCGSADCNAFGGGTEVVVKG
notes: rabbit 24D9 VH W34H; chimeric, human constant regions
B9: MYT7892 (antibody, V domains shown)
VH: QQQLVESGGGLVKPGASLTLTCKASGFSFSGSYWISWVRQAPGKGLEWIGHINGGSLDITYYASWAKGRFTISKASSTTVTLQKTSLTAADTATYFCASDTSYTAYGNFYFNLWGPGTLVTVSS
VL: AQVLTQTASPVSAAVGGTVTINCQSSQSVLNNNWLAWYQQKPGQPPKLLIYDASSLASGVPSRFKGSGSGTQFTLTISDLESDDAATYYCQGEFSCGSADCNAFGGGTEVVVKG
notes: rabbit 24D9 VH C51H; chimeric, human constant regions
B10: MYT7890 (antibody, V domains shown)
VH: QQQLVESGGGLVKPGASLTLTCKASGFSFSGSYWHCWVRQAPGKGLEWIGCINGGSLDITYYASWAKGRFTISKASSTTVTLQKTSLTAADTATYFCASDTSYTAYGNFYFNLWGPGTLVTVSS
VL: AQVLTQTASPVSAAVGGTVTINCQSSQSVLNNNWLAWYQQKPGQPPKLLIYDASSLASGVPSRFKGSGSGTQFTLTISDLESDDAATYYCQGEFSCGSADCNAFGGGTEVVVKG
notes: rabbit 24D9 VH I35H; chimeric, human constant regions
B11: MYT7885 (antibody, V domains shown)
VH: QQQLVESGGGLVKPGASLTLTCKASGFSFHGSYWICWVRQAPGKGLEWIGCINGGSLDITYYASWAKGRFTISKASSTTVTLQKTSLTAADTATYFCASDTSYTAYGNFYFNLWGPGTLVTVSS
VL: AQVLTQTASPVSAAVGGTVTINCQSSQSVLNNNWLAWYQQKPGQPPKLLIYDASSLASGVPSRFKGSGSGTQFTLTISDLESDDAATYYCQGEFSCGSADCNAFGGGTEVVVKG
notes: rabbit 24D9 VH S30H; chimeric, human constant regions
B12: MYT7895 (antibody, V domains shown)
VH: QQQLVESGGGLVKPGASLTLTCKASGFSFSGSYWICWVRQAPGKGLEWIGCINHGSLDITYYASWAKGRFTISKASSTTVTLQKTSLTAADTATYFCASDTSYTAYGNFYFNLWGPGTLVTVSS
VL: AQVLTQTASPVSAAVGGTVTINCQSSQSVLNNNWLAWYQQKPGQPPKLLIYDASSLASGVPSRFKGSGSGTQFTLTISDLESDDAATYYCQGEFSCGSADCNAFGGGTEVVVKG
notes: rabbit 24D9 VH G54H; chimeric, human constant regions
B13: MYT7883 (antibody, V domains shown)
VH: QQQLVESGGGLVKPGASLTLTCKASGFHFSGSYWICWVRQAPGKGLEWIGCINGGSLDITYYASWAKGRFTISKASSTTVTLQKTSLTAADTATYFCASDTSYTAYGNFYFNLWGPGTLVTVSS
VL: AQVLTQTASPVSAAVGGTVTINCQSSQSVLNNNWLAWYQQKPGQPPKLLIYDASSLASGVPSRFKGSGSGTQFTLTISDLESDDAATYYCQGEFSCGSADCNAFGGGTEVVVKG
notes: rabbit 24D9 VH S28H; chimeric, human constant regions
B14: MYT7897 (antibody, V domains shown)
VH: QQQLVESGGGLVKPGASLTLTCKASGFSFSGSYWICWVRQAPGKGLEWIGCINGGHLDITYYASWAKGRFTISKASSTTVTLQKTSLTAADTATYFCASDTSYTAYGNFYFNLWGPGTLVTVSS
VL: AQVLTQTASPVSAAVGGTVTINCQSSQSVLNNNWLAWYQQKPGQPPKLLIYDASSLASGVPSRFKGSGSGTQFTLTISDLESDDAATYYCQGEFSCGSADCNAFGGGTEVVVKG
notes: rabbit 24D9 VH S56H; chimeric, human constant regions
B15: MYT7884 (antibody, V domains shown)
VH: QQQLVESGGGLVKPGASLTLTCKASGFSHSGSYWICWVRQAPGKGLEWIGCINGGSLDITYYASWAKGRFTISKASSTTVTLQKTSLTAADTATYFCASDTSYTAYGNFYFNLWGPGTLVTVSS
VL: AQVLTQTASPVSAAVGGTVTINCQSSQSVLNNNWLAWYQQKPGQPPKLLIYDASSLASGVPSRFKGSGSGTQFTLTISDLESDDAATYYCQGEFSCGSADCNAFGGGTEVVVKG
notes: rabbit 24D9 VH F29H; chimeric, human constant regions
B16: MYT7882 (antibody, V domains shown)
VH: QQQLVESGGGLVKPGASLTLTCKASGHSFSGSYWICWVRQAPGKGLEWIGCINGGSLDITYYASWAKGRFTISKASSTTVTLQKTSLTAADTATYFCASDTSYTAYGNFYFNLWGPGTLVTVSS
VL: AQVLTQTASPVSAAVGGTVTINCQSSQSVLNNNWLAWYQQKPGQPPKLLIYDASSLASGVPSRFKGSGSGTQFTLTISDLESDDAATYYCQGEFSCGSADCNAFGGGTEVVVKG
notes: rabbit 24D9 VH F27H; chimeric, human constant regions
B17: MYT7886 (antibody, V domains shown)
VH: QQQLVESGGGLVKPGASLTLTCKASGFSFSHSYWICWVRQAPGKGLEWIGCINGGSLDITYYASWAKGRFTISKASSTTVTLQKTSLTAADTATYFCASDTSYTAYGNFYFNLWGPGTLVTVSS
VL: AQVLTQTASPVSAAVGGTVTINCQSSQSVLNNNWLAWYQQKPGQPPKLLIYDASSLASGVPSRFKGSGSGTQFTLTISDLESDDAATYYCQGEFSCGSADCNAFGGGTEVVVKG
notes: rabbit 24D9 VH G31H; chimeric, human constant regions
B18: MYT7888 (antibody, V domains shown)
VH: QQQLVESGGGLVKPGASLTLTCKASGFSFSGSHWICWVRQAPGKGLEWIGCINGGSLDITYYASWAKGRFTISKASSTTVTLQKTSLTAADTATYFCASDTSYTAYGNFYFNLWGPGTLVTVSS
VL: AQVLTQTASPVSAAVGGTVTINCQSSQSVLNNNWLAWYQQKPGQPPKLLIYDASSLASGVPSRFKGSGSGTQFTLTISDLESDDAATYYCQGEFSCGSADCNAFGGGTEVVVKG
notes: rabbit 24D9 VH Y33H; chimeric, human constant regions

For the test, the target named is T1, Human LRRC15 Protein, His Tag (Acro …). The test can be described thus: BLI; dissociation pH 7.4 black, pH 5.4 grey [1/2); D00013 FIG. 2B (1/2]. For orientation: Biolayer interferometry detects binding as a change in optical thickness at a sensor tip.
As for B1, the binding result is recorded as “binds”.
Consider B2, for which the binding result is recorded as “binds”.
For the molecule B3, the binding result was “binds”.
Next, B4: “binds”; B5: “binds”; B6: “binds”.
Next, B7: “binds”; B8: “binds”; B9: “binds”.
Consider B10, for which the binding result is on record as “binds”.
Next, B11: “binds”; B12: “binds”; B13: “binds”.
Next, B14: “binds”.
Consider B15, for which the binding result was “no binding (tested: 50 nM LRRC15)”.
Next, B16: “binds”; B17: “binds”.
For the molecule B18, the binding result is recorded as “binds”.
